Source: publication doi:10.1101/2024.12.23.630085, “Accurate sequence-to-affinity models for SH2 domains from multi-round peptide binding assays coupled with free-energy regression” (bioRxiv, 2025)
Non-standard residues stand in square brackets, D forms with d. No end group written: not given here. *: point of attachment. FITC = O=C1OC2(c3ccc(O)cc3Oc3cc(O)ccc32)c2ccc(NC(=S)*)cc21; pY = N[C@@H](Cc1ccc(OP(=O)(O)O)cc1)C(=O)O; Ahx = NCCCCCC(=O)O

Assays:
Details in all cases: both partners purified
c-Src SH2 domain = target: T1, c-Src SH2 domain (UniProt P12931-1 151-248, biotin (biotinylated SH2 domain of the selection)); experiment: fluorescence polarisation; competition mode; unlabelled phosphopeptide against 30 nM FITC-Ahx-GDG-pY-EEISPLLL-NH2 and 122.745 nM c-Src SH2 (123.745 to 125.745 in three rows; Table S3)
T1 construct: SH2 domain of c-Src kinase; source: purified

Lyn SH2 domain (121-228) [1] = target: T2, Lyn SH2 domain (121-228) (human, UniProt P07948 121-228, biotin (on the AviTag)); experiment: fluorescence polarisation; competition mode; unlabelled phosphopeptide against 30 nM FITC-Ahx-GDG-pY-EEISPLLL-NH2 and 106.5 nM Lyn SH2 (Table S3)
T2 construct: source: E. coli C43(DE3) with BirA helper plasmid, purified (HisTrap, anion exchange, Ulp1 cleavage, SEC); not shown: His6-SUMO, N-terminal, cleaved; AviTag, C-terminal, kept
T2 sequence (P07948 121-228): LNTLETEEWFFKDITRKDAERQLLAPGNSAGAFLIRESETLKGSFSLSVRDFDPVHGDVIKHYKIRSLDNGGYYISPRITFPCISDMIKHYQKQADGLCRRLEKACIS

Grb2 SH2 domain = target: T3, Grb2 SH2 domain (UniProt P62993 60-152, biotin (biotinylated SH2 domain of the selection)); experiment: fluorescence polarisation; competition mode; unlabelled phosphopeptide against 30 nM FITC-Ahx-FDDPS(pY)VNVQN and 123 nM Grb2 SH2 (Table S3)
T3 construct: SH2 domain of the adapter protein Grb2; source: purified
T3 sequence (P62993 60-152): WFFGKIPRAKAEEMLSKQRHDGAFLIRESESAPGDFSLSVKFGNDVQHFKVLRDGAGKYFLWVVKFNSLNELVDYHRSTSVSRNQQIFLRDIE

Yes SH2 domain (150-257) = target: T4, Yes SH2 domain (150-257) (human, UniProt P07947 150-257, biotin on the AviTag); experiment: fluorescence polarisation; competition mode: unlabelled phosphopeptide competes with a FITC-labelled probe phosphopeptide for the purified SH2 domain; probe KD first measured in direct mode; as described in ref. 33
T4 construct: human Yes kinase, SH2 domain, residues 150-257; source: E. coli C43(DE3) with BirA helper plasmid, purified (HisTrap, HiTrap Q, Superdex 75); not shown: His6-SUMO, N-terminal, cleaved; AviTag, C-terminal, kept
T4 sequence (P07947 150-257): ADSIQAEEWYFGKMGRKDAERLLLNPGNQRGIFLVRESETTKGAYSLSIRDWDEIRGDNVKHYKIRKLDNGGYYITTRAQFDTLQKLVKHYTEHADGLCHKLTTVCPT

Blk SH2 domain (116-222) = target: T5, Blk SH2 domain (116-222) (human, UniProt P51451 116-222, biotin on the AviTag); experiment: as above
T5 construct: human Blk kinase, SH2 domain, residues 116-222; source: E. coli C43(DE3) with BirA helper plasmid, purified (HisTrap, HiTrap Q, Superdex 75); not shown: His6-SUMO, N-terminal, cleaved; AviTag, C-terminal, kept
T5 sequence (P51451 116-222): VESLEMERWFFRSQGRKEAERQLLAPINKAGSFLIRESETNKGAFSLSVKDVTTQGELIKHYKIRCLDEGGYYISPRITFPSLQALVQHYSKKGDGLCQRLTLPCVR

Fyn SH2 domain (142-248) [2] = target: T6, Fyn SH2 domain (142-248) (human, UniProt P06241 142-248, biotin on the AviTag); experiment: as above
T6 construct: human Fyn kinase, SH2 domain, residues 142-248; source: E. coli C43(DE3) with BirA helper plasmid, purified (HisTrap, HiTrap Q, Superdex 75); not shown: His6-SUMO, N-terminal, cleaved; AviTag, C-terminal, kept
T6 sequence (P06241 142-248): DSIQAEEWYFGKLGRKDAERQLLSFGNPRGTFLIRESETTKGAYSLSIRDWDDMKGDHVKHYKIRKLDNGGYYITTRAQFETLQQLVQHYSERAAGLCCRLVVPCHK

Lyn SH2 domain (121-228) [3] = target: T7, Lyn SH2 domain (121-228) (human, UniProt P07948 121-228, biotin on the AviTag); experiment: as above
T7 construct: source: E. coli C43(DE3) with BirA helper plasmid, purified (HisTrap, HiTrap Q, Superdex 75); not shown: His6-SUMO, N-terminal, cleaved; AviTag, C-terminal, kept
T7 sequence (P07948 121-228): as the sequence (P07948 121-228) above

Fyn SH2 domain (142-248) [4] = target: T8, Fyn SH2 domain (142-248) (human, UniProt P06241 142-248, biotin (on the AviTag)); experiment: fluorescence polarisation; competition mode; unlabelled phosphopeptide against 0.4 nM FITC-Ahx-GDG-pY-EEISPLLL-NH2 and 4.125 nM Fyn SH2, as printed (Tables S3 and S5)
T8 construct: SH2 domain of human Fyn kinase, residues 142-248; source: E. coli C43(DE3) with BirA helper plasmid, purified (HisTrap, anion exchange, Ulp1 cleavage, SEC); not shown: His6-SUMO, N-terminal, cleaved; AviTag, C-terminal, kept
T8 sequence (P06241 142-248): as the sequence (P06241 142-248) above

Binder	Kd (c-Src SH2 domain)	Kd (Lyn SH2 domain (121-228) [1])	further results
Ac-QPSTTE[pY]SEIKTG-NH2 (flank added to the 11-residue stretch (surmised: last residue of the library's constant GQSGQ); SIGLEC5, human, around pY544; flank added to the 11-residue stretch (surmised: first residue of the library's constant GGQSG); source: synthetic peptide (SynPeptide, China)) [SIGLEC5 pY544]	282 nM	362 nM	
Ac-QIEVGT[pY]QNPHNG-NH2 (source: synthetic peptide (SynPeptide, China)) [Syn-G2-7 (synthetic)]			Kd (Grb2 SH2 domain): 3240 nM
Ac-QHNIHS[pY]INIPPG-NH2 (source: synthetic peptide (SynPeptide, China)) [Syn-G2-2 (synthetic)]			Kd (Grb2 SH2 domain): 3.99 nM
Ac-QHRLNN[pY]ENNRLG-NH2 (source: synthetic peptide (SynPeptide, China)) [Syn-G2-6 (synthetic)]			Kd (Grb2 SH2 domain): 2250 nM
Ac-QLGHQR[pY]HNITPG-NH2 (source: synthetic peptide (SynPeptide, China)) [Syn-G2-5 (synthetic)]			Kd (Grb2 SH2 domain): 487 nM
{FITC-Ahx}-GDG[pY]EEISPLLL (c-Src SH2 consensus peptide; the Y is phosphotyrosine; also called c-Src SH2 consensus; probe; source: synthetic peptide (SynPeptide, China)) [FITC-Ahx-GDG(pY)EEISPLLL]			binding result (Yes SH2 domain (150-257)): binds; binding result (Blk SH2 domain (116-222)): binds; binding result (Fyn SH2 domain (142-248) [2]): binds; binding result (Lyn SH2 domain (121-228) [3]): binds
Ac-QEGGVD[pY]KNIHLG-NH2 (SMILES CC[C@H](C)[C@H](NC(=O)[C@H](CC(N)=O)NC(=O)[C@H](CCCCN)NC(=O)[C@H](Cc1ccc(OP(=O)(O)O)cc1)NC(=O)[C@H](CC(=O)O)NC(=O)[C@@H](NC(=O)CNC(=O)CNC(=O)[C@H](CCC(=O)O)NC(=O)[C@H](CCC(N)=O)NC(C)=O)C(C)C)C(=O)N[C@@H](Cc1c[nH]cn1)C(=O)N[C@@H](CC(C)C)C(=O)NCC(N)=O, flank added to the 11-residue stretch (surmised: last residue of the library's constant GQSGQ); CSF1R, human, around pY699; flank added to the 11-residue stretch (surmised: first residue of the library's constant GGQSG); also called CSFR pY699; source: synthetic peptide (SynPeptide, China)) [CSF1R pY699]		22800 nM	
Ac-QNDGEI[pY]DDIADG-NH2 (flank added to the 11-residue stretch (surmised: last residue of the library's constant GQSGQ); SLAP-130, human, around pY771; flank added to the 11-residue stretch (surmised: first residue of the library's constant GGQSG); source: synthetic peptide (SynPeptide, China)) [SLAP-130 pY771]	94 nM	96.8 nM	
Ac-QDINSL[pY]DVSRMG-NH2 (flank added to the 11-residue stretch (surmised: last residue of the library's constant GQSGQ); PLCG2, human, around pY753; flank added to the 11-residue stretch (surmised: first residue of the library's constant GGQSG); also called PLCγ2 pY753; source: synthetic peptide (SynPeptide, China)) [PLCG2 pY 753]	12300 nM	11700 nM	
Ac-QHKEDV[pY]ENLHTG-NH2 (flank added to the 11-residue stretch (surmised: last residue of the library's constant GQSGQ); PTPN6 (SHP1), human, around pY564; flank added to the 11-residue stretch (surmised: first residue of the library's constant GGQSG); also called SHP1 pY564; source: synthetic peptide (SynPeptide, China)) [PTPN6 pY564]	909 nM	943 nM	
{FITC-Ahx}-GDG[pY]EEISPLLL-NH2 (SMILES CC[C@H](C)[C@H](NC(=O)[C@H](CCC(=O)O)NC(=O)[C@H](CCC(=O)O)NC(=O)[C@H](Cc1ccc(OP(=O)(O)O)cc1)NC(=O)CNC(=O)[C@H](CC(=O)O)NC(=O)CNC(=O)CCCCCNC(=S)Nc1ccc2c(c1)C(=O)OC21c2ccc(O)cc2Oc2cc(O)ccc21)C(=O)N[C@@H](CO)C(=O)N1CCC[C@H]1C(=O)N[C@@H](CC(C)C)C(=O)N[C@@H](CC(C)C)C(=O)N[C@@H](CC(C)C)C(N)=O, fluorescent probe, c-Src SH2 consensus peptide; also called c-Src SH2 consensus; source: synthetic peptide (SynPeptide, China)) [FITC-Ahx-GDG-pY-EEISPLLL-NH2]			binding result (Lyn SH2 domain (121-228) [1]): binds; binding result (Fyn SH2 domain (142-248) [4]): binds
Ac-QDDQEV[pY]DDVAEG-NH2 (flank added to the 11-residue stretch (surmised: last residue of the library's constant GQSGQ); SLAP-130, human, around pY595; flank added to the 11-residue stretch (surmised: first residue of the library's constant GGQSG); also called SLAP-130 Y595; source: synthetic peptide (SynPeptide, China)) [SLAP-130 pY595]	191 nM	240 nM	
Ac-QMEKHV[pY]ESVTQG-NH2 (SMILES CSCC[C@H](NC(=O)[C@H](CCC(N)=O)NC(C)=O)C(=O)N[C@@H](CCC(=O)O)C(=O)N[C@@H](CCCCN)C(=O)N[C@@H](Cc1c[nH]cn1)C(=O)N[C@H](C(=O)N[C@@H](Cc1ccc(OP(=O)(O)O)cc1)C(=O)N[C@@H](CCC(=O)O)C(=O)N[C@@H](CO)C(=O)N[C@H](C(=O)N[C@H](C(=O)N[C@@H](CCC(N)=O)C(=O)NCC(N)=O)[C@@H](C)O)C(C)C)C(C)C, source: synthetic peptide (SynPeptide, China)) [Syn-F-2 (synthetic)]			Kd (Fyn SH2 domain (142-248) [4]): 18.3 nM
Ac-QGRREE[pY]DVLDKG-NH2 (SMILES CC(=O)N[C@@H](CCC(N)=O)C(=O)NCC(=O)N[C@@H](CCCNC(=N)N)C(=O)N[C@@H](CCCNC(=N)N)C(=O)N[C@@H](CCC(=O)O)C(=O)N[C@@H](CCC(=O)O)C(=O)N[C@@H](Cc1ccc(OP(=O)(O)O)cc1)C(=O)N[C@@H](CC(=O)O)C(=O)N[C@H](C(=O)N[C@@H](CC(C)C)C(=O)N[C@@H](CC(=O)O)C(=O)N[C@@H](CCCCN)C(=O)NCC(N)=O)C(C)C, flank added to the 11-residue stretch (surmised: last residue of the library's constant GQSGQ); CD3 zeta chain, human, around pY83; flank added to the 11-residue stretch (surmised: first residue of the library's constant GGQSG); also called CD3ζ pY83; source: synthetic peptide (SynPeptide, China)) [CD3Z pY83]		2950 nM	
Ac-QEWRSQ[pY]EALKEG-NH2 (flank added to the 11-residue stretch (surmised: last residue of the library's constant GQSGQ); TRAF3IP3, human, around pY322; flank added to the 11-residue stretch (surmised: first residue of the library's constant GGQSG); source: synthetic peptide (SynPeptide, China)) [TRAF3IP3 pY322]	6480 nM	3940 nM	
Ac-QAESRI[pY]DEILQG-NH2 (flank added to the 11-residue stretch (surmised: last residue of the library's constant GQSGQ); CD84, human, around pY296; flank added to the 11-residue stretch (surmised: first residue of the library's constant GGQSG); source: synthetic peptide (SynPeptide, China)) [CD84 pY296]	28.1 nM	91 nM	
Ac-QKEAHH[pY]VNWRTG-NH2 (source: synthetic peptide (SynPeptide, China)) [Syn-G2-1 (synthetic)]	9660 nM		Kd (Grb2 SH2 domain): 31.8 nM
Ac-QLHVHP[pY]EKVEDG-NH2 (SMILES CC(=O)N[C@@H](CCC(N)=O)C(=O)N[C@@H](CC(C)C)C(=O)N[C@@H](Cc1c[nH]cn1)C(=O)N[C@H](C(=O)N[C@@H](Cc1c[nH]cn1)C(=O)N1CCC[C@H]1C(=O)N[C@@H](Cc1ccc(OP(=O)(O)O)cc1)C(=O)N[C@@H](CCC(=O)O)C(=O)N[C@@H](CCCCN)C(=O)N[C@H](C(=O)N[C@@H](CCC(=O)O)C(=O)N[C@@H](CC(=O)O)C(=O)NCC(N)=O)C(C)C)C(C)C, source: synthetic peptide (SynPeptide, China)) [Syn-F-1 (synthetic)]			Kd (Fyn SH2 domain (142-248) [4]): 30.2 nM
